System: HEK293FT cells transfected with TF library
Experiment: Screening of TF condensates based on fluorescent puncta
Type: cell-based
Conditions: Figure 1B numerical data; TF library screen, one value per transcriptional factor
Summary of the method: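 Each TF construct was introduced into HEK293FT cells using PEI at 4.8 μg/ml; glucose deprivation versus normal medium lasted 12 h. Automated confocal-style imaging of tagged TF staining, 50 fields per well, gave the puncta data.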

B1: ZFY (protein, UniProt P08048 1-801, looked up)
Zinc finger Y-chromosomal …: MDEDEFELQPQEPNSFFDGIGADATHMDGDQIVVEIQEAVFVSNIVDSDITVHNFVPDDPDSVVIQDVVEDVVIEEDVQCSDILEEADVSENVIIPEQVLDSDVTEEVSLPHCTVPDDVLASDITSTSMSMPEHVLTSESMHVCDIGHVEHMVHDSVVEAEIITDPLTSDIVSEEVLVADCAPEAVIDASGISVDQQDNDKASCEDYLMISLDDAGKIEHDGSTGVTIDAESEMDPCKVDSTCPEVIKVYIFKADPGEDDLGGTVDIVESEPENDHGVELLDQNSSIRVPREKMVYMTVNDSQQEDEDLNVAEIADEVYMEVIVGEEDAAVAAAAAAVHEQQIDEDEMKTFVPIAWAAAYGNNSDGIENRNGTASALLHIDESAGLGRLAKQKPKKKRRPDSRQYQTAIIIGPDGHPLTVYPCMICGKKFKSRGFLKRHMKNHPEHLAKKKYHCTDCDYTTNKKISLHNHLESHKLTSKAEKAIECDECGKHFSHAGALFTHKMVHKEKGANKMHKCKFCEYETAEQGLLNRHLLAVHSKNFPHICVECGKGFRHPSELRKHMRIHTGEKPYQCQYCEYRSADSSNLKTHIKTKHSKEMPFKCDICLLTFSDTKEVQQHTLVHQESKTHQCLHCDHKSSNSSDLKRHVISVHTKDYPHKCEMCEKGFHRPSELKKHVAVHKGKKMHQCRHCDFKIADPFVLSRHILSVHTKDLPFRCKRCRKGFRQQNELKKHMKTHSGRKVYQCEYCEYSTTDASGFKRHVISIHTKDYPHRCEYCKKGFRRPSEKNQHIMRHHKEVGLP
Z score of condensed fraction: -1.019

B2: ZGLP1 (protein, UniProt P0C6A0 1-273, looked up)
GATA-type zinc finger protein …: MEAEPIPDSSMPAKLLAPPCLNLERLGGSPSQEKPRTPGCCRISERSLWPACQESVTALCFLQETVERLGQSPAQDTPVLGPCWDPMALGTQGRLLLDRDSKDTQTRISQKGRRLQPPGTPSAPPQRRPRKQLNPCRGTERVDPGFEGVTLKFQIKPDSSLQIIPTYSLPCSSRSQESPADAVGGPAAHPGGTEAHSAGSEALEPRRCASCRTQRTPLWRDAEDGTPLCNACGIRYKKYGTRCSSCWLVPRKNVQPKRLCGRCGVSLDPIQEG
Z score of condensed fraction: -0.7375

B3: ZFAT (protein, UniProt Q9P243 1-1243, looked up)
Zinc finger protein ZFAT: METRAAENTAIFMCKCCNLFSPNQSELLSHVSEKHMEEGVNVDEIIIPLRPLSTPEPPNSSKTGDEFLVMKRKRGRPKGSTKKSSTEEELAENIVSPTEDSPLAPEEGNSLPPSSLECSKCCRKFSNTRQLRKHICIIVLNLGEEEGEAGNESDLELEKKCKEDDREKASKRPRSQKTEKVQKISGKEARQLSGAKKPIISVVLTAHEAIPGATKIVPVEAGPPETGATNSETTSADLVPRRGYQEYAIQQTPYEQPMKSSRLGPTQLKIFTCEYCNKVFKFKHSLQAHLRIHTNEKPYKCPQCSYASAIKANLNVHLRKHTGEKFACDYCSFTCLSKGHLKVHIERVHKKIKQHCRFCKKKYSDVKNLIKHIRDAHDPQDKKVKEALDELCLMTREGKRQLLYDCHICERKFKNELDRDRHMLVHGDKWPFACELCGHGATKYQALELHVRKHPFVYVCAVCRKKFVSSIRLRTHIKEVHGAAQEALVFTSSINQSFCLLEPGGDIQQEALGDQLQLVEEEFALQGVNALKEEACPGDTQLEEGRKEPEAPGEMPAPAVHLASPQAESTALPPCELETTVVSSSDLHSQEVVSDDFLLKNDTSSAEAHAAPEKPPDMQHRSSVQTQGEVITLLLSKAQSAGSDQESHGAQSPLGEGQNMAVLSAGDPDPSRCLRSNPAEASDLLPPVAGGGDTITHQPDSCKAAPEHRSGITAFMKVLNSLQKKQMNTSLCERIRKVYGDLECEYCGKLFWYQVHFDMHVRTHTREHLYYCSQCHYSSITKNCLKRHVIQKHSNILLKCPTDGCDYSTPDKYKLQAHLKVHTALDKRSYSCPVCEKSFSEDRLIKSHIKTNHPEVSMSTISEVLGRRVQLKGLIGKRAMKCPYCDFYFMKNGSDLQRHIWAHEGVKPFKCSLCEYATRSKSNLKAHMNRHSTEKTHLCDMCGKKFKSKGTLKSHKLLHTADGKQFKCTVCDYTAAQKPQLLRHMEQHVSFKPFRCAHCHYSCNISGSLKRHYNRKHPNEEYANVGTGELAAEVLIQQGGLKCPVCSFVYGTKWEFNRHLKNKHGLKVVEIDGDPKWETATEAPEEPSTQYLHITEAEEDVQGTQAAVAALQDLRYTSESGDRLDPTAVNILQQIIELGAETHDATALASVVAMAPGTVTVVKQVTEEEPSSNHTVMIQETVQQASVELAEQHHLVVSSDDVEGIETVTVYTQGGEASEFIVYVQEAMQPVEEQAVEQPAQEL
Z score of condensed fraction: -0.7456

B4: ZFP36L1 (protein, UniProt P23950 1-338, looked up)
mRNA decay activator protein …: MTTTLVSATIFDLSEVLCKGNKMLNYSTPSAGGCLLDRKAVGTPAGGGFPRRHSVTLPSSKFHQNQLLSSLKGEPAPSLSSRDSRFRDRSFSEGGERLLPTQKQPGSGQVNSSRYKTELCRPFEENGACKYGDKCQFAHGIHELRSLTRHPKYKTELCRTFHTIGFCPYGPRCHFIHNAEERRALAGGRDLSADRPRLQHSFSFAGFPSAAATAAATGLLDSPTSITPPPILSADDLLGSPTLPDGTNNPFAFSSQELASLFAPSMGLPGGGSPTTFLFRPMSESPHMFDSPPSPQDSLSDHEGYLSSSSSSHSGSDSPTLDNSRRLPIFSRLSISDD
Z score of condensed fraction: 0.2477

B5: CALCOCO1 (protein, UniProt Q9P1Z2 1-691, looked up)
Calcium-binding and …: MEESPLSRAPSRGGVNFLNVARTYIPNTKVECHYTLPPGTMPSASDWIGIFKVEAACVRDYHTFVWSSVPESTTDGSPIHTSVQFQASYLPKPGAQLYQFRYVNRQGQVCGQSPPFQFREPRPMDELVTLEEADGGSDILLVVPKATVLQNQLDESQQERNDLMQLKLQLEGQVTELRSRVQELERALATARQEHTELMEQYKGISRSHGEITEERDILSRQQGDHVARILELEDDIQTISEKVLTKEVELDRLRDTVKALTREQEKLLGQLKEVQADKEQSEAELQVAQQENHHLNLDLKEAKSWQEEQSAQAQRLKDKVAQMKDTLGQAQQRVAELEPLKEQLRGAQELAASSQQKATLLGEELASAAAARDRTIAELHRSRLEVAEVNGRLAELGLHLKEEKCQWSKERAGLLQSVEAEKDKILKLSAEILRLEKAVQEERTQNQVFKTELAREKDSSLVQLSESKRELTELRSALRVLQKEKEQLQEEKQELLEYMRKLEARLEKVADEKWNEDATTEDEEAAVGLSCPAALTDSEDESPEDMRLPPYGLCERGDPGSSPAGPREASPLVVISQPAPISPHLSGPAEDSSSDSEAEDEKSVLMAAVQSGGEEANLLLPELGSAFYDMASGFTVGTLSETSTGGPATPTWKECPICKERFPAESDKDALEDHMDGHFFFSTQDPFTFE
Z score of condensed fraction: 0.2225

B6: ZFP296 (protein, UniProt Q8WUU4 1-475, looked up)
Zinc finger protein 296: MSRRKAGSAPRRVEPAPAANPDDEMEMQDLVIELKPEPDAQPQQAPRLGPFSPKEVSSAGRFGGEPHHSPGPMPAGAALLALGPRNPWTLWTPLTPNYPDRQPWTDKHPDLLTCGRCLQTFPLEAITAFMDHKKLGCQLFRGPSRGQGSEREELKALSCLRCGKQFTVAWKLLRHAQWDHGLSIYQTESEAPEAPLLGLAEVAAAVSAVVGPAAEAKSPRASGSGLTRRSPTCPVCKKTLSSFSNLKVHMRSHTGERPYACDQCPYACAQSSKLNRHKKTHRQVPPQSPLMADTSQEQASAAPPEPAVHAAAPTSTLPCSGGEGAGAAATAGVQEPGAPGSGAQAGPGGDTWGAITTEQRTDPANSQKASPKKMPKSGGKSRGPGGSCEFCGKHFTNSSNLTVHRRSHTGERPYTCEFCNYACAQSSKLNRHRRMHGMTPGSTRFECPHCHVPFGLRATLDKHLRQKHPEAAGEA
Z score of condensed fraction: 0.8818

B7: CALR (protein, UniProt P27797 18-417, looked up)
Calreticulin: EPAVYFKEQFLDGDGWTSRWIESKHKSDFGKFVLSSGKFYGDEEKDKGLQTSQDARFYALSASFEPFSNKGQTLVVQFTVKHEQNIDCGGGYVKLFPNSLDQTDMHGDSEYNIMFGPDICGPGTKKVHVIFNYKGKNVLINKDIRCKDDEFTHLYTLIVRPDNTYEVKIDNSQVESGSLEDDWDFLPPKKIKDPDASKPEDWDERAKIDDPTDSKPEDWDKPEHIPDPDAKKPEDWDEEMDGEWEPPVIQNPEYKGEWKPRQIDNPDYKGTWIHPEIDNPEYSPDPSIYAYDNFGVLGLDLWQVKSGTIFDNFLITNDEAYAEEFGNETWGVTKAAEKQMKDKQDEEQRLKEEEEDKKRKEEEEAEDKEDDEDKDEDEEDEEDKEEDEEEDVPGQAKDEL
Z score of condensed fraction: 1.22

B8: ZFP144 (protein, UniProt P35227 1-344, looked up)
Polycomb group RING finger …: MHRTTRIKITELNPHLMCALCGGYFIDATTIVECLHSFCKTCIVRYLETNKYCPMCDVQVHKTRPLLSIRSDKTLQDIVYKLVPGLFKDEMKRRRDFYAAYPLTEVPNGSNEDRGEVLEQEKGALSDDEIVSLSIEFYEGARDRDEKKGPLENGDGDKEKTGVRFLRCPAAMTVMHLAKFLRNKMDVPSKYKVEVLYEDEPLKEYYTLMDIAYIYPWRRNGPLPLKYRVQPACKRLTLATVPTPSEGTNTSGASECESVSDKAPSPATLPATSSSLPSPATPSHGSPSSHGPPATHPTSPTPPSTASGATTAANGGSLNCLQTPSSTSRGRKMTVNGAPVPPLT
Z score of condensed fraction: 0.0768

B9: ZIC3 (protein, UniProt O60481 1-467, looked up)
Zinc finger protein ZIC 3: MTMLLDGGPQFPGLGVGSFGAPRHHEMPNREPAGMGLNPFGDSTHAAAAAAAAAAFKLSPAAAHDLSSGQSSAFTPQGSGYANALGHHHHHHHHHHHTSQVPSYGGAASAAFNSTREFLFRQRSSGLSEAASGGGQHGLFAGSASSLHAPAGIPEPPSYLLFPGLHEQGAGHPSPTGHVDNNQVHLGLRGELFGRADPYRPVASPRTDPYAAGAQFPNYSPMNMNMGVNVAAHHGPGAFFRYMRQPIKQELSCKWIDEAQLSRPKKSCDRTFSTMHELVTHVTMEHVGGPEQNNHVCYWEECPREGKSFKAKYKLVNHIRVHTGEKPFPCPFPGCGKIFARSENLKIHKRTHTGEKPFKCEFEGCDRRFANSSDRKKHMHVHTSDKPYICKVCDKSYTHPSSLRKHMKVHESQGSDSSPAASSGYESSTPPAIASANSKDTTKTPSAVQTSTSHNPGLPPNFNEWYV
Z score of condensed fraction: -0.3091

B10: ZFP67 (protein, UniProt O15156 1-539, looked up)
Zinc finger and BTB …: MGSPEDDLIGIPFPDHSSELLSCLNEQRQLGHLCDLTIRTQGLEYRTHRAVLAACSHYFKKLFTEGGGGAVMGAGGSGTATGGAGAGVCELDFVGPEALGALLEFAYTATLTTSSANMPAVLQAARLLEIPCVIAACMEILQGSGLEAPSPDEDDCERARQYLEAFATATASGVPNGEDSPPQVPLPPPPPPPPRPVARRSRKPRKAFLQTKGARANHLVPEVPTVPAHPLTYEEEEVAGRVGSSGGSGPGDSYSPPTGTASPPEGPQSYEPYEGEEEEEELVYPPAYGLAQGGGPPLSPEELGSDEDAIDPDLMAYLSSLHQDNLAPGLDSQDKLVRKRRSQMPQECPVCHKIIHGAGKLPRHMRTHTGEKPFACEVCGVRFTRNDKLKIHMRKHTGERPYSCPHCPARFLHSYDLKNHMHLHTGDRPYECHLCHKAFAKEDHLQRHLKGQNCLEVRTRRRRKDDAPPHYPPPSTAAASPAGLDLSNGHLDTFRLSLARFWEQSAPTGPPVSTPGPPDDDEEEGAPTTPQAEGAMESS
Z score of condensed fraction: 0.1735
